# Laboratory results published in patent US20230220057A1 (STAIDSON BEIJING BIOPHARMACEUTICALS, published 2023).
# Substitutions are numbered along the chain they refer to.
# B1: Ab1 (antibody, human IgG1, V domains shown)
# VH: EVQLVQSGAEVKKPGATVKISCKVSGYTFITYWISWVQQAPGKGLEWMGAIDPSDSDARYSPSFQGRVTITADTSTDTAYMELSSLRSEDTAVYYCAKSDPGYSGYSLLYGFDSWGQGTLVTVSS
# VL: DIVMTQTPLSSPVTLGQPASISCRSSQSLVQRNGNTYLSWLQQRPGQPPRLLIYQVSNRYSGVPDRFSGSGAGTDFTLKISRVEAEDVGVYYCGQGAHLPLTFGQGTKVEIK
# notes: Lead antibody; also called Abl
# B2: Ab51 (antibody, human IgG1, V domains shown)
# VH: EVQLVQSGAEVKKPGESLKISCKISGYSFITYWISWVRQMPGKGLEWMGAIDPSDSDARYSPSFQGQVTISADKSISTAYLQWSSLKASDTAMYYCAKSDPGYSGYSLLYGFDSWGQGTLVTVSS
# VL: B1 VL
# B3: Ab8 (antibody, human IgG1, V domains shown)
# VH: B1 VH
# VL: B1 VL with T7S, S11L, L41Y, P48S, A72S
# B4: Ab30 (antibody, human IgG1, V domains shown)
# VH: B1 VH with T28S, T74K
# VL: B1 VL with T7S, S11L, L41F, A72S
# B5: Ab18 (antibody, human IgG1, V domains shown)
# VH: B1 VH with T28S
# VL: B1 VL with T7S, S11L, L41Y, P48S, A72S
# B6: Ab28 (antibody, human IgG1, V domains shown)
# VH: B1 VH with T28S, T74K
# VL: B1 VL with T7S, S11L, L41Y, P48S, A72S
# B7: Ab24 (antibody, human IgG1, V domains shown)
# VH: B1 VH with T28S, T74K
# VL: B1 VL with I2V, T7S, S11L, L41Y, P48S, A72S
# B8: Ab3 (antibody, human IgG1, V domains shown)
# VH: B1 VH
# VL: B1 VL with I2V, T7S, S11L, L41F, P48S, A72S
# B9: Ab43 (antibody, human IgG1, V domains shown)
# VH: B2 VH with I24G
# VL: B1 VL with I2V, T7S, S11L, L41F, P48S, A72S
# B10: Ab53 (antibody, human IgG1, V domains shown)
# VH: B2 VH
# VL: B1 VL with I2V, T7S, S11L, L41F, P48S, A72S
# B11: Ab32 (antibody, human IgG1, V domains shown)
# VH: B1 VH with T74K
# VL: B1 VL with L41Y
# B12: Ab9 (antibody, human IgG1, V domains shown)
# VH: B1 VH
# VL: B1 VL with T7S, S11L, L41Y, A72S
# B13: Ab31 (antibody, human IgG1, V domains shown)
# VH: B1 VH with T74K
# VL: B1 VL
# B14: Ab19 (antibody, human IgG1, V domains shown)
# VH: B1 VH with T28S
# VL: B1 VL with T7S, S11L, L41Y, A72S
# B15: Ab40 (antibody, human IgG1, V domains shown)
# VH: B1 VH with T74K
# VL: B1 VL with T7S, S11L, L41F, A72S
# B16: Ab7 (antibody, human IgG1, V domains shown)
# VH: B1 VH
# VL: B1 VL with T7S, S11L, L41F, P48S, A72S
# B17: Ab34 (antibody, human IgG1, V domains shown)
# VH: B1 VH with T74K
# VL: B1 VL with I2V, T7S, S11L, L41Y, P48S, A72S
# B18: Ab14 (antibody, human IgG1, V domains shown)
# VH: B1 VH with T28S
# VL: B1 VL with I2V, T7S, S11L, L41Y, P48S, A72S
# B19: Ab33 (antibody, human IgG1, V domains shown)
# VH: B1 VH with T74K
# VL: B1 VL with I2V, T7S, S11L, L41F, P48S, A72S
# B20: Ab12 (antibody, human IgG1, V domains shown)
# VH: B1 VH with T28S
# VL: B1 VL with L41Y
# B21: Ab35 (antibody, human IgG1, V domains shown)
# VH: B1 VH with T74K
# VL: B1 VL with I2V, T7S, S11L, L41Y, A72S
# B22: Ab26 (antibody, human IgG1, V domains shown)
# VH: B1 VH with T28S, T74K
# VL: B1 VL with I2V, T7S, S11L, L41F, A72S
# B23: Ab29 (antibody, human IgG1, V domains shown)
# VH: B1 VH with T28S, T74K
# VL: B1 VL with T7S, S11L, L41Y, A72S
# B24: Ab38 (antibody, human IgG1, V domains shown)
# VH: B1 VH with T74K
# VL: B1 VL with T7S, S11L, L41Y, P48S, A72S
# B25: Ab22 (antibody, human IgG1, V domains shown)
# VH: B1 VH with T28S, T74K
# VL: B1 VL with L41Y
# B26: Ab41 (antibody, human IgG1, V domains shown)
# VH: B2 VH with I24G
# VL: B1 VL
# B27: Ab20 (antibody, human IgG1, V domains shown)
# VH: B1 VH with T28S
# VL: B1 VL with T7S, S11L, L41F, A72S
# B28: Ab27 (antibody, human IgG1, V domains shown)
# VH: B1 VH with T28S, T74K
# VL: B1 VL with T7S, S11L, L41F, P48S, A72S
# B29: Ab25 (antibody, human IgG1, V domains shown)
# VH: B1 VH with T28S, T74K
# VL: B1 VL with I2V, T7S, S11L, L41Y, A72S
# B30: Ab17 (antibody, human IgG1, V domains shown)
# VH: B1 VH with T28S
# VL: B1 VL with T7S, S11L, L41F, P48S, A72S
# B31: Ab15 (antibody, human IgG1, V domains shown)
# VH: B1 VH with T28S
# VL: B1 VL with I2V, T7S, S11L, L41Y, A72S
# B32: Ab11 (antibody, human IgG1, V domains shown)
# VH: B1 VH with T28S
# VL: B1 VL
# B33: Ab2 (antibody, human IgG1, V domains shown)
# VH: B1 VH
# VL: B1 VL with L41Y
# B34: Ab23 (antibody, human IgG1, V domains shown)
# VH: B1 VH with T28S, T74K
# VL: B1 VL with I2V, T7S, S11L, L41F, P48S, A72S
# B35: Ab50 (antibody, human IgG1, V domains shown)
# VH: B2 VH with I24G
# VL: B1 VL with T7S, S11L, L41F, A72S
# B36: Ab21 (antibody, human IgG1, V domains shown)
# VH: B1 VH with T28S, T74K
# VL: B1 VL
# B37: Ab5 (antibody, human IgG1, V domains shown)
# VH: B1 VH
# VL: B1 VL with I2V, T7S, S11L, L41Y, A72S
# B38: Ab39 (antibody, human IgG1, V domains shown)
# VH: B1 VH with T74K
# VL: B1 VL with T7S, S11L, L41Y, A72S
# B39: Ab13 (antibody, human IgG1, V domains shown)
# VH: B1 VH with T28S
# VL: B1 VL with I2V, T7S, S11L, L41F, P48S, A72S
# Target: T1, human NGF-Fc protein (human, UniProt P01138 122-241, limits assumed)
# T1 construct: not shown: human IgG1 Fc or IgG4 Fc
# Assay: BLI (Octet Red), human NGF-Fc captured on anti-human Fc sensors, Fab in solution
# Experimental: FortéBio BioLayer Interferometry (BLI) technology was chosen as the method for affinity determination by using Octet Red system. NGF is a homodimer protein in its nature form. […] For the purpose of affinity measurement, monovalent Fab fragments of IgG were prepared using Fab preparation kit (Pierce).
# After purification, the Fab concentration was determined by OD280 according to the extinction coefficient calculated based on its sequence. […] For each assay, an array of Fab concentrations from about 50 nM to less than 1 nM in kinetic buffer (PALL) were tested by NGF-Fc sensors with the association time of 300 seconds and dissociation time of 1200 seconds. The kinetic data were analyzed using program Data Analysis HT 10.0 according to the manual. All the tests were repeated at least twice in independent assays.
# T1 sequence (P01138 122-241 limits assumed): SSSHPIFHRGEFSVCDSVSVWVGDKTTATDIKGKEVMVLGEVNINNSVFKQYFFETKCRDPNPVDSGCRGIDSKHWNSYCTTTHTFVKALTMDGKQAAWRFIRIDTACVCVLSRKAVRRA
Molecule,Kd [pM],koff [s⁻¹],kon [M⁻¹ s⁻¹]
Tanezumab Fab,169,6.14e-05,364000

# Target: recombinantly produced human-NGF (human, UniProt P01138 122-241, limits assumed)
# Assay: ELISA, human NGF coated, IgG titrated
# Experimental: NGF binding ELISA assay: In human NGF binding ELISA, Corning 3366 high binding 96 well plates were coated with recombinantly produced human-NGF at 1 μg per ml, 50 μl/well in 1×PBS, and incubated overnight at 4° C. The plates were washed and blocked with 250 μl of 1×PBS/1% BSA at least 30 minutes at room temperature. 50 μl of culture supernatants, after 1:1 diluted by the PBS/BSA diluent, or the purified antibodies diluted serially from a certain concentration with the diluent, were added per well, and incubated at 37° C. for 2 hours. After washing, a secondary antibody, goat anti-human IgG Fc AP (Southern biotech) was applied at a dilution of 1:3000 in PBS/BSA. The plates were incubated for 1 hour at RT and washed. After adding the PNPP substrate, the ODs at 405 nm were read.
# NGF binding ELISA assay: NGF binding ELISA assay was performed as described in Example 1.
# Chain of recombinantly produced human-NGF (P01138 122-241 limits assumed): as above
row,Molecule,EC50 [ng/mL]
1,B1,0.0185
2,B2,0.0221
3,B3,0.0205
4,B4,0.0254
5,B5,0.0271
6,B6,0.0331
7,B7,0.0399
8,B8,0.017
9,B9,0.0221
10,B10,0.0482
11,B11,0.0403
12,B12,0.0876
13,B13,0.0502
14,B14,0.0324
15,B15,0.0172
16,B16,0.00988
17,B17,0.11
18,B18,0.0351
19,B19,0.0342
20,B20,0.0365

row,Molecule,EC50 [ng/mL]
1,B21,0.0308
2,B22,0.0234
3,B23,0.0292
4,B24,0.0252
5,B25,0.0382
6,B26,0.0192
7,B27,0.0215
8,B28,0.0206
9,B29,0.0331
10,B30,0.016
11,B31,0.046
12,B32,0.032
13,B33,0.0197
14,B34,0.0405
15,B35,0.00629
16,B36,0.0403
17,B37,0.0139
18,B38,0.0208
19,B39,0.043
